The values that follow come from patent US20140301945A1 (NEURIMMUNE, published 2014).

The target in assay [1] is T1, wild type SOD1 from human erythrocytes (physiological dimers) (human, UniProt P00441 2-154).
T1 construct: Purified from human erythrocytes (Sigma-Aldrich); homodimer; control incubated in Tris acetate buffer without oxidants; also called Native SOD1; native human SOD1 dimers
The assay is described as follows: direct ELISA, native human SOD1 dimers coated at 20 µg/ml.
Description: (§1) Primary antibodies were diluted to the indicated concentrations and incubated 1 h at RT. Binding was determined using either a donkey anti-human IgG Fcγ-specific antibody conjugated with HRP or a goat anti-mouse IgG (H+L)-specific antibody conjugated with HRP, followed by measurement of HRP activity in a standard colorimetric assay.
(§2) The EC₅₀ of the different human-derived SOD1-specific antibodies for native human SOD1 dimers, denatured/oxidized human SOD1 and recombinant SOD1 was determined by direct ELISA with coating of the different SOD1 species at 20 μg/ml concentration.

For assay [2], the target named is T2, recombinant human SOD1 (biomol, Hamburg) (human, UniProt P00441 2-154, limits assumed).
T2 construct: Bought protein; also called recombinant human superoxide dismutase 1; Recombinant SOD1
The assay is described as follows: direct ELISA, recombinant SOD1 coated at 20 µg/ml. (An ELISA detects its analyte on a solid surface through an enzyme-linked reagent.)
Description: as §1, §2

For assay [3], the target named is T3, in vitro misfolded/aggregated human SOD1 (metal-catalyzed oxidation) (human, UniProt P00441 2-154, oxidized by metal-catalyzed oxidation (4 mM ascorbic acid, 0.2 mM CuCl2, 48 hours at 37 C); residues not stated).
T3 construct: also called Oxidized SOD1; in vitro aggregated human SOD1 dimers
Description: direct ELISA, oxidized human SOD1 coated at 20 µg/ml.

Assay [4] deals with T4, in vitro denatured human SOD1 (human, UniProt P00441 2-154).
T4 construct: also called Denatured SOD1; unfolded SOD1
Description: direct ELISA, denatured human SOD1 coated at 20 µg/ml.
Description: as §1, §2

The next assay has as its target T5, bovine serum albumin (bovine, UniProt P02769 25-607).
T5 construct: Control antigen in ELISA; also called BSA
The assay is described as follows: direct ELISA, BSA coated at 3.3 µg/ml.

Assay [5] concerns the target T2, recombinant human SOD1 (biomol, Hamburg). The assay is described as follows: direct ELISA, recombinant human SOD1 coated at 0.1 µg/ml.
Description: (§3) Binding was determined using either a goat anti-mouse IgG antibody (Jackson immunoResearch, Newmarket, UK) or a donkey anti-human IgGγ (Jackson immunoResearch, Newmarket, UK) antibody conjugated with HRP, followed by measurement of HRP activity in a standard colorimetric assay. The EC₅₀ values were estimated by a non-linear regression using GraphPad Prism (San Diego, USA) software.
Assay [6] has the same target. The assay is described as follows: direct ELISA, recombinant human SOD1 coated at 10 µg/ml.
Description: as §3
For assay [7] the target is unchanged. The assay is described as follows: direct ELISA, recombinant human SOD1 coated at 3.3 µg/ml.
Description: Binding was determined using a donkey anti-human IgGγ antibody (Jackson immunoResearch, Newmarket, UK) conjugated with HRP, followed by measurement of HRP activity in a standard colorimetric assay.
The EC₅₀ values were estimated by a non-linear regression using GraphPad Prism (San Diego, USA) software.
The target is the same in assay [8]. The assay is described as follows: direct ELISA, recombinant human SOD1 coated at 30 µg/ml.
Description: as §3
In assay [9] the target is T3, in vitro misfolded/aggregated human …. Description: direct ELISA, in vitro aggregated human SOD1 coated at 34 µg/ml.
Description: Non-specific binding sites were blocked for 1 hr at RT with PBS/0.1% Tween®-20 containing 2% BSA (Sigma-Aldrich, Buchs, Switzerland). […] Binding was determined using either a goat anti-mouse IgG antibody (Jackson immunoResearch, Newmarket, UK) or a donkey anti-human IgGγ antibody (Jackson immunoResearch, Newmarket, UK) conjugated with HRP, followed by measurement of HRP activity in a standard colorimetric assay. EC₅₀ values were estimated by a non-linear regression using GraphPad Prism software (San Diego, USA).
The target in assay [10] is T2, recombinant human SOD1 (biomol, Hamburg). The assay is described as follows: direct ELISA, recombinant human SOD1 coated at 1 µg/ml.
Description: as §3
Assay [11] has as its target wild type SOD1 from human erythrocytes (physiological dimers) (human) (UniProt P00441). Description: direct ELISA, native human SOD1 dimers coated at 20 µg/ml; Native SOD1 (not denatured, oxidized or recombinant).

T5 sequence (P02769 25-607 limits assumed): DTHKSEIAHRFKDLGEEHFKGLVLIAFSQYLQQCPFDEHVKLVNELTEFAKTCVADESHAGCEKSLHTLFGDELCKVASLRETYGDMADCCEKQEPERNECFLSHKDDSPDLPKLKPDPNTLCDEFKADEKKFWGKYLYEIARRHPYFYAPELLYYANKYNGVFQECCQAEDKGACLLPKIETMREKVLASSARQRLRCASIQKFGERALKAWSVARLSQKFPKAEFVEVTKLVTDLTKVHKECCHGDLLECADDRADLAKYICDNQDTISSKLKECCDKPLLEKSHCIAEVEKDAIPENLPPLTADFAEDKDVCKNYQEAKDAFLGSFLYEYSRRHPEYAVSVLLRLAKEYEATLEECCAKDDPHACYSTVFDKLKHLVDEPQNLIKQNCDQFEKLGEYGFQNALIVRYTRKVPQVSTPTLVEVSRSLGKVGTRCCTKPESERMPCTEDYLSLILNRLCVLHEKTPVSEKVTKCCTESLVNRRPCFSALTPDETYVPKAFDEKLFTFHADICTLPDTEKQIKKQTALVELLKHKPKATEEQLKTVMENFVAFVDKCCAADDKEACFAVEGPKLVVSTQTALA
T3 sequence (P00441 2-154 limits assumed): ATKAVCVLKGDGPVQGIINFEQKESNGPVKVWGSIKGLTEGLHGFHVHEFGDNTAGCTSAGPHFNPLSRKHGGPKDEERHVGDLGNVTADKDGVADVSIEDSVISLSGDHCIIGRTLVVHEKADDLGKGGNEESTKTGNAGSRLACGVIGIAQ
T1 sequence (P00441 2-154 limits assumed): as above
T2 sequence (P00441 2-154 limits assumed): as above
T4 sequence (P00441 2-154 limits assumed): as above
wild type SOD1 from human erythrocytes (physiological dimers) (human), sequence (P00441 2-154 limits assumed): as above
Description for bovine serum albumin: Non-specific binding sites were blocked for 2 hr at RT with PBS containing 2% BSA (Sigma-Aldrich, Buchs, Switzerland) and 0.5% Tween20.

B1: NI-204.7B3 (antibody, human IgG1, V domains shown)
VH: EVQLVQSGGDIVQSGGSLRLSCAASGFVFSSNWMHWVRQRPGKGLEWISLINVDGRTTKYADSVKGRFTISRDNAKKTVYLQMDSLRAEDTAVYYCVKVEGLNWGPGTLVTVSS
VL: LPVLTQPPSVSVSPGQTARITCSGDELSKQYAYWYQKKSGQAPVMVVNEDTKRPPGIPERFSGSSSGTTSTLTISGVQAEDEADYYCQSADITGSWVFGGGTKLTVL
What is called EC50 is the concentration needed to bring the measured effect to its halfway point. In the case of B1, the EC50 in assay [1] was greater than 100 nM; in assay [2], 42 nM; in assay [3], greater than 100 nM; in assay [4], 50 nM.

B2: NI-204.34A3 (antibody, human IgG1, V domains shown)
VH: EVQLVESGGGLVKPGGSLRVSCDVSGQRLSKAWMNWVRQTPTRGLEWVGLIKRDADGGTTEFAAPVEGRFTISRDDIQNTMTLHMTRLRVDDTGVYYCVAGDIGCIKENCRWGEGTTVTVSS
VL: SYELTQPPSVSVSPGQTARITCSGDALPTKFAFWYQQKSGQAPVLVIYEDDKRPSGIPQRFSGSSSGTTATLTISGAQEEDDADYYCYSKDSTNVERVFGTGTKLSVL
In the case of B2, the EC50 in assay [1] was greater than 100 nM; in [2], 2 nM; in [3], 12 nM; in assay [4], 10 nM.

B3: NI-204.6H1 (antibody, human IgG1, V domains shown)
VH: QVQLQQWGAGRLRPSETLSLTCAVYGGSFNGYARTWIRQPPGKGLEWIGEIDHRENTNYNPSLKSRVTMSVDTSKNQFSLRLNSVTAADTAVYFCARGQKNAKDQHEGFRYWGRGTLVTVSS
VL: SYELTQPPSVSVSPGQTARITCSGDALPKQFAYWYQQKSGQAPKLVIFKDTERPSGIPERFSASSSGTKATLTISGVQAEDEADYYCQSADRTATSWVFGGGTKLTVL
B3: the EC50 is greater than 100 nM in [1], 2 nM in [2], 4 nM in [3] and 5 nM in assay [4].

B4: NI-204.7G5 (antibody, human IgG1, V domains shown)
VH: EVQLVESGGGVVQAGGSLRLSCVASGLTFSSYGMHWVRQAPGKGLEWVAVISYDGRSKFYADSVKGRFTISRDNSKNTLYLQMNSLRAEDAAVYYCANARVRDACSGTRCDKFGFYMDVWGKGTTVTVSS
VL: SYVLTQPPSVSVSPGQTARITCSGDALPKKYAYWYQQKSGQAPVLVIYEDIKRPSGIPERFSGSSSGTMATLTISGAQVEDEGDYYCYSADRSGNRWAFGGGTKLTVL
As for B4, the EC50 in assay [1] was greater than 100 nM; in assay [2], 13 nM; in [3] it was 5 nM; in assay [4], 60 nM.

B5: NI-204.9F6 (antibody, human IgG1, V domains shown)
VH: EVQLVESGGGLVQPGGSLRLSCAVSGFTFDTFAMSWVRQAPGKGLEWVSAITASSSKTYYADSVKGRFTISRDNSRNTVYLRLSSLRADDTAVYFCARPKGAHSGLYIESAFDLWGPGTMVTVSS
VL: SYVLTQPPSVSVSAGQTASITCSADMLGDTYVSWYQKRPGQSPVLLIYQDSKRPSEIPERFSGSSSEDTATLTITGTQALDEAAYYCQVWDRRTTTYVFGPGTEVTVL
notes: also called NI-209.9F6
As for B5, the binding result with bovine serum albumin is recorded as “no binding”. For the same molecule, the 50% effective concentration (EC50) is greater than 100 nM in [1]; 451 nM in assay [5]; 148 nM in assay [6]; greater than 100 nM in [2]; greater than 100 nM in assay [3]; 105 nM in assay [7]. Also, the EC50 in assay [8] came to 117 nM; in assay [9], 127 nM; in assay [10], 134 nM.

B6: NI-204.10D12 (antibody, V domains shown)
VH: EVQLVESGGDLVRPGGSLRLSCVASGFTFSNYWMHWVRQAPGQRPVWVSRTNTDGRNTAYADYAKGRFTISRDNAKSTLYLQLNSLRAEDTAVYFCARLRRNVADQITHNYYMDVWGKGTLVTVSS
VL: EIVLTQSPGSLAVSLGERATINCKSSQTVLYNNKNYLAWYQQKPGQPPKLLISWASSRESGVPDRFSGSGSGTDFTLTISSLQAEDVAVYYCQHYYGTPVTFGGGTKVEIK
Take B6: the binding result with bovine serum albumin is listed as “no binding”. For the same molecule, the EC50 in [5] amounted to 606 nM; in assay [6], 24 nM; in assay [2], 7 nM; in assay [3], 6 nM; in assay [7] it was 10 nM; in [4], 5 nM. In addition, the EC50 in assay [11] is greater than 100 nM; in assay [8] it was 35 nM; in assay [9] it was 15 nM; in [10] it was 81.4 nM.

B7: NI-204.11F11 (antibody, human IgG1, V domains shown)
VH: EVQLVESGGGLVKPGGSLRLSCAASGLPFSKAWMSWVRQAPGKGLEWVGRIKSQADGGAIDYATSVNGRFTITRDDSKNTLYLQMTSLKTEDTAVYYCTPGIILRFLEGTLRGMDVWGQGTTVTVSS
VL: EIVLTQSPPTLSLSPGERATLSCRASQTVSKYLAWYQQKPGQAPRLLVYDTSNRAIGIPPRFSGSGSGTDFTLTISTLEPEDFALYYCQQRSNWPPTFGQGTRLEIK
As for B7, the EC50 in assay [1] is 50 nM; in assay [2] it was 0.5 nM; in assay [3], 0.4 nM; in assay [4], 0.3 nM.

B8: NI-204.12G7 (antibody, human IgG1, V domains shown)
VH: EVQLVESGAEVKKPGASVTLSCKASGYTFTAYYIHWVRQAREQGLEWMGVINPSTGTTFYAQNFPDRVSVTRDTSTSTVFMELHNLKSEDTAVYYCARAISEHGSGSYSPYYWGQGTLVTVSS
VL: SYVLTQPPSVSVSLGQMAAITCSGEALPKKYGYWYQQKPGQVPVLLIYRDVERPSGVPDRFSGSSSGTMVTLTISGVQAEDEADYYCLSADSSGTWVFGGGTKLTVL
For the molecule B8, the binding result in the assay with bovine serum albumin is “no binding”. Moreover, the EC50 in assay [1] was greater than 40 nM; in [5], 75.9 nM; in assay [6], 0.39 nM; in assay [2] it was 0.06 nM; in [3] it was 0.6 nM; in assay [7] it was 0.4 nM. Also, the EC50 in assay [4] was 0.07 nM; in [8] it was 0.36 nM; in [9], 3.6 nM; in assay [10], 3.1 nM.

B9: NI-204.67E12 (antibody, human IgG1, V domains shown)
VH: EVQLLESGGGLIRPGGSLRLSCAASGFTFSNYAMGWVRQAPGKGLEWVSAISGNGGSTYYGGSVKGRFTISRDKSKNTLYLQMNNLRADDTAVYFCAKLEAVAPTLTLRYFKHWGKGTLVTVSS
VL: DIQMTQSPSTLSASVGDRVTITCRASQSISRWLAWYQQRPGRAPDLLIYDASNLESGVPSRFSGSGSGTEFTLTISSLQPGDFATYYCQQYYSYVYTFGQGTKLEIK
Regarding B9, the EC50 was 0.1 nM in [1], 0.2 nM in [2], 0.06 nM in assay [3] and 0.08 nM in [4].

B10: NI-204.25H3 (antibody, human IgG1, V domains shown)
VH: QVQLQESGPGLVKPSETLSLTCTVSGGSISSSYWSWIRQPPGQGLEWIGYIYYSGNTYYNPSLKSRVTISIDTSKTQFSLNLTSVSAADTAVYYCARDGIPGAIGMDVWGQGTTVTVSS
VL: QSVLTQPPSVSAAPGQKVNISCSGSSSNIGNNYVSWYQRLPGTAPKLLIYDNNKRPSGIPDRFSGSKSGTSATLGITGLQTGDGADYYCATWDKSLIAVVFGGGTKLTVL
On to B10, for which the EC50 was greater than 100 nM in [1], 1 nM in [2], 2 nM in [3] and 4 nM in assay [4].
